Data taken from US20060122119A1, “Peptides for use in antitumor immunotherapy” (Institut Nat'l De La Sante Et De La Recherche Med., priority 2002, published 2006).

What was measured:
HLA-B*3501 (human) [1] = details: remark: other sources report otherwise
HLA-B*3501 (human) [2] = details: remark: other sources report otherwise; remark: listed apart in the source

RA (relative affinity) (HLA-B*3501 (human) [1]): 2.3
Stability (half-life of the peptide on HLA-B*35) (HLA-B*3501 (human) [2]): > 6 h
Binder: EVDPIGHLY [MAGE-A3 peptide 168-176 …]
